Where no end group is shown, it is not given here.
Biological target: the molecule itself
Test: atomic force microscopy + co-sedimentation; peptide 10 mg/mL in 10% acetonitrile in water, shaken at 600 rpm at 37 °C for 24 h; fibrils imaged by AFM on mica; fibrils pelleted at 313,000 x g for 30 min, supernatant with unaggregated monomer removed, and the pellet's peptide analysed by LC-MS

YTIAALLSPYS-NH2 [TTR105-115 peptide, unfunctionalised 'wild-type', amide-terminated]
binding result: binds
